Data published in publication PMC8694623 (Science Advances, 2021).

How the values were obtained:
cryo-EM structure = target: the molecule itself; assay: cryo-EM structure
negative-stain EM = target: the molecule itself; assay: negative-stain EM

Row | Protein | binding result (cryo-EM structure) | binding result (negative-stain EM)
1 | S. cerevisiae Atm1-Strep (ABC transporter of mitochondria 1), wild type (natural protein, UniProt P40416 92-690, looked up) LKDLFRYIWPKGNNKVRIRVLIALGLLISAKILNVQVPFFFKQTIDSMNIAWDDPTVALPAAIGLTILCYGVARFGSVLFGELRNAVFAKVAQNAIRTVSLQTFQHLMKLDLGWHLSRQTGGLTRAMDRGTKGISQVLTAMVFHIIPISFEISVVCGILTYQFGASFAAITFSTMLLYSIFTIKTTAWRTHFRRDANKADNKAASVALDSLINFEAVKYFNNEKYLADKYNGSLMNYRDSQIKVSQSLAFLNSGQNLIFTTALTAMMYMGCTGVIGGNLTVGDLVLINQLVFQLSVPLNFLGSVYRDLKQSLIDMETLFKLRKNEVKIKNAERPLMLPENVPYDITFENVTFGYHPDRKILKNASFTIPAGWKTAIVGSSGSGKSTILKLVFRFYDPESGRILINGRDIKEYDIDALRKVIGVVPQDTPLFNDTIWENVKFGRIDATDEEVITVVEKAQLAPLIKKLPQGFDTIVGERGLMISGGEKQRLAIARVLLKNARIMFFDEATSALDTHTEQALLRTIRDNFTSGSRTSVYIAHRLRTIADADKIIVLDNGRVREEGKHLELLAMPGSLYRELWTIQEDLDHLENELKDQQEL | binds | 
2 | Atm1-L657 truncation mutant (residues 92 to 656), C-terminally Strep-tagged (domain or fragment, S. cerevisiae, UniProt P40416 92-656, looked up) LKDLFRYIWPKGNNKVRIRVLIALGLLISAKILNVQVPFFFKQTIDSMNIAWDDPTVALPAAIGLTILCYGVARFGSVLFGELRNAVFAKVAQNAIRTVSLQTFQHLMKLDLGWHLSRQTGGLTRAMDRGTKGISQVLTAMVFHIIPISFEISVVCGILTYQFGASFAAITFSTMLLYSIFTIKTTAWRTHFRRDANKADNKAASVALDSLINFEAVKYFNNEKYLADKYNGSLMNYRDSQIKVSQSLAFLNSGQNLIFTTALTAMMYMGCTGVIGGNLTVGDLVLINQLVFQLSVPLNFLGSVYRDLKQSLIDMETLFKLRKNEVKIKNAERPLMLPENVPYDITFENVTFGYHPDRKILKNASFTIPAGWKTAIVGSSGSGKSTILKLVFRFYDPESGRILINGRDIKEYDIDALRKVIGVVPQDTPLFNDTIWENVKFGRIDATDEEVITVVEKAQLAPLIKKLPQGFDTIVGERGLMISGGEKQRLAIARVLLKNARIMFFDEATSALDTHTEQALLRTIRDNFTSGSRTSVYIAHRLRTIADADKIIVLDNGRVREEGKH |  | binds
